# Experimental data from the PETadex activity labels (doi:10.1126/science.aad6359).
# B1: unnamed (protein)
# chain: MNFPRASRLMQAAVLGGLMAVSAAATAQTNPYARGPNPTAASLEASAGPFTVRSFTVSRPSGYGAGTVYYPTNAGGTVGAIAIVPGYTARQSSIKWWGPRLASHGFVVITIDTNSTLDQPSSRSSQQMAALRQVASLNGTSSSPIYGVKTARMVMGWSMGGGGSLISAANNPSLKAAAPQAPWDSSTNFSSVTVPTLIFACENDSIAPVNSSALPIYDSMSRNAKQFLEINGGSHSCANSGNSNQALIGKKGVAWMKRFMDNDTRYSTFACENPNSTRVSDFRTANCS
# B2: unnamed (protein)
# chain: MDGVLWRVRTAALMAALLALAAWALWASPSVEAQSNPYQRGPNPTRSALTADGPFSVATYTVSRLSVSGFGGGVIYYPTGTSLTFGGIAMSPGYTADASSLAWLGRRLASHGFVVLVINTNSRFDYPDSRASQLSAALNYLRTSSPSAVRARLDNARLAVAGHSMGGGGTLRIAEQNPSLKAAVPLTPWHTDKTFNTSVPVLIVGAEADTVAPVSQHAIPFYQNLPSTTPKVYVELDNASHFAPNSNNAAISVYTISWMKLWVDNDTRYRQFLCNVNDPALSFDRTNNRHCQ
# B3: unnamed (protein)
# chain: MQTTVTTMLLASVALAACAGGGSTPLPLPQQQPPQQEPPPPPVPLASRAACEALKDGNGDMVWPNAATVVEVAAWRDAAPATASAAALPEHCEVSGAIAKRTGIDGYPYEIKFRLRMPAEWNGRFFMEGGSGTNGSLSAATGSIGGGQIASALSRNFATIATDGGHDNAVNDNPDALGTVAFGLDPQARLDMGYNSYDQVTQAGKAAVARFYGRAADKSYFIGCSEGGREGMMLSQRFPSHYDGIVAGAPGYQLPKAGISGAWTTQSLAPAAVGLDAQGVPLINKSFSDADLHLLSQAILGTCDALDGLADGIVDNYRACQAAFDPATAANPANGQALQCVGAKTADCLSPVQVTAIKRAMAGPVNSAGTPLYNRWAWDAGMSGLSGTTYNQGWRSWWLGSFNSSANNAQRVSGFSARSWLVDFATPPEPMPMTQVAARMMKFDFDIDPLKIWATSGQFTQSSMDWHGATSTDLAAFRDRGGKMILYHGMSDAAFSALDTADYYERLGAAMPGAAGFARLFLVPGMNHCSGGPGTDRFDMLTPLVAWVERGEAPDQISAWSGTPGYFGVAARTRPLCPYPQIARYKGSGDINTEANFACAAPP
# B4: unnamed (protein)
# chain: MAVMTPRRERSSLLSRALQVTAAAATALVTVSLAAPAHAANPYARGPNPTDALLEASSGPFSVSEENVSRLSASGFGGGIYYPRENNTYGAVAISPGYTGTEASIAWLGERIASHGFVVITIDTITTLDQPDSRAEQLNAALNHMINRASSTVRSRIDSSRLAVMGHSMGGGGTLRLASQRPDLKAAIPLTPWHLNKNWSSVTVPTLIIGADLDTIAPVATHAKPFYNSLPSSISKAYLELDGATHFAPNIPNKIIGKYSVAWLKRFVDNDTRYTQFLCPGPRDGLFGEVEYRSTCPF
# Substrate: BHET
# Experiment: Proxy for plastic degradation [kcat] (s⁻¹)
# Conditions: pH 7
row,Protein,Proxy for plastic degradation
1,B1,0.8
2,B2,0.1
3,B4,0.03

# Substrate: pNP-C2; pNP-C4; pNP-C6; pNP-C8
# Experiment: Proxy for plastic degradation [kcat] (s⁻¹)
# Conditions: pH 7
row,Protein,Proxy for plastic degradation
1,B1,0.005

# Substrate: hcPET
# Experiment: Proxy for plastic degradation [Released monomer concentration (HPLC/LC-MS) (MHET+TPA)]
# Conditions: pH 9
row,Protein,Proxy for plastic degradation [mM]
1,B1,0.01
2,B2,0.001
3,B4,0.001

# Substrate: PET
# Experiment: Proxy for plastic degradation [Released monomer concentration (HPLC/LC-MS) (TPA+MHET+BHET)]
# Conditions: 0 h
row,Protein,Proxy for plastic degradation [mM]
1,B1,0

# Same assay, conditions: pH 7
row,Protein,Proxy for plastic degradation [mM]
1,B1,0.32
2,B2,0.05
3,B4,0.003

# Same assay, conditions: pH 9; 20 °C
row,Protein,Proxy for plastic degradation [mM]
1,B1,0.001
2,B2,0.0005
3,B4,0.0001

# Same assay, conditions: pH 9; 30 °C
row,Protein,Proxy for plastic degradation [mM]
1,B1,0.01
2,B2,0.01
3,B4,0.0001

# Same assay, conditions: pH 9; 35 °C
row,Protein,Proxy for plastic degradation [mM]
1,B1,0.02
2,B2,0.01
3,B4,0.0001

# Same assay, conditions: pH 9; 40 °C
row,Protein,Proxy for plastic degradation [mM]
1,B1,0.03
2,B2,0.15
3,B4,0.001

# Same assay, conditions: pH 9; 50 °C
row,Protein,Proxy for plastic degradation [mM]
1,B1,0.005
2,B2,1.2
3,B4,0.009

# Same assay, conditions: pH 9; 60 °C
row,Protein,Proxy for plastic degradation [mM]
1,B1,0.0001
2,B2,3.5
3,B4,0.015

# Same assay, conditions: pH 9; 70 °C
row,Protein,Proxy for plastic degradation [mM]
1,B1,0.0001
2,B2,2
3,B4,0.01

# Same assay, conditions: pH 9; 80 °C
row,Protein,Proxy for plastic degradation [mM]
1,B1,0.0001
2,B4,0.001

# Substrate: MHET
# Experiment: not given
# Conditions: pH 7; 30 °C; part of the chain shown
Protein,Km [µM],kcat [s⁻¹],kcat/Km [M⁻¹ s⁻¹]
B3,7.3,31,4.25e+06
